Numbered stars: 1 amine (or outer) side, 2 acyl side, 3 side chain; on linkers, the order of the positions; unused ones are H or OH. Side chains are listed from the residue outwards. Ends that are not written are not given here. * marks the point of attachment. C22 diacid = O=C(O)CCCCCCCCCCCCCCCCCCCCC(=O)*; γGlu = O=C(O)[C@H](CCC(=O)[*:2])N[*:1]; AEEA = NCCOCCOCC(=O)O

This assay addresses albumin (HSA) (human, UniProt P02768 25-609). The assay is described as follows: shift of receptor-binding IC50 between 0.005% and 2% HSA (indirect).

albumin (HSA), sequence (P02768 25-609 limits assumed): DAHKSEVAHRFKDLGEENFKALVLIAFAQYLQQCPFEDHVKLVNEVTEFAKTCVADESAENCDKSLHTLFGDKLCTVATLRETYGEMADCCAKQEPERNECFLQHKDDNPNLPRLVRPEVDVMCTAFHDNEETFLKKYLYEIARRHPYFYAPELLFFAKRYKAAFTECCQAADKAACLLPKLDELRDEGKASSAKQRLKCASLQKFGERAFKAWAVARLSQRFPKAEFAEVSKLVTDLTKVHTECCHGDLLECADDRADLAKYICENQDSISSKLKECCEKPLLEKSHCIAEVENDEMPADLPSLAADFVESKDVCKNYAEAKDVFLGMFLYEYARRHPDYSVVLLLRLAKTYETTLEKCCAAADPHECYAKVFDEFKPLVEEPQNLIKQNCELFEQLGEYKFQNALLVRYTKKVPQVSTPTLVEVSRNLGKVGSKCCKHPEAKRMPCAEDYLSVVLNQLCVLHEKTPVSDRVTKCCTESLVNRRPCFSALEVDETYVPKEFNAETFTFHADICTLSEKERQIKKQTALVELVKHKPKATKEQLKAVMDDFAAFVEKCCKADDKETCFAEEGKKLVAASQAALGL

B1: N-ε^26-[2-(2-[2-(2-[2-(2-[4-(21-carboxyheneicosanoylamino)-4(S)-carboxybutanoylamino]ethoxy)ethoxy]acetylamino)ethoxy]ethoxy)acetyl][Gly8, Arg34]GLP-1-(7-37) … (peptide)
peptide: HGEGTFTSDVSSYLEGQAAK([AEEA-AEEA-γGlu-C22 diacid])EFIAWLVRGRG
notes: also called Compound 10
For the molecule B1, the binding result is “binds”.

For the origin of these results see patent EP4799645A2 (GAN & LEE PHARMACEUTICALS CO., LTD., dated 2026).
